Experimental data as given in the supplement of paper PMC10065799, “High-throughput profiling of sequence recognition by tyrosine kinases and SH2 domains using bacterial peptide display” (eLife, 2023).

How the values were obtained:
FGFR1 = FGFR1 (UniProt P11362); assay: phosphorylation enrichment, bacterial display (enrichment ratio); higher = better substrate or ligand; peptides without Tyr show the background
FGFR3 = FGFR3 (UniProt P22607); assay: as above
EPHB1 = EPHB1 (UniProt P54762); assay: as above
c-Abl (mouse) = assay: as above
Fer (mouse) = assay: as above
MERTK = MERTK (UniProt Q12866); assay: as above
AncSZ = assay: as above
Hck = Hck (UniProt P08631); assay: as above
EPHB2 = EPHB2 (UniProt P29323); assay: as above
Fyn = Fyn (UniProt P06241); assay: as above
c-Src = assay: as above
Jak2 = Jak2 (UniProt O60674); assay: as above
Fes = Fes (UniProt P07332); assay: as above
Grb2 SH2 = Grb2 SH2 (UniProt P62993); assay: SH2 binding enrichment of the phosphorylated peptide, bacterial display (enrichment ratio); higher = better substrate or ligand; peptides without Tyr show the background
c-Src SH2 = assay: as above
SHP2-C SH2 = assay: as above
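Wherever SH2 binding enrichment of the phosphorylated peptide, bacterial display is given: peptide library displayed on the E. coli surface as eCPX fusions, selected cells deep-sequenced, score is each peptide's frequency after selection divided by its frequency in the input.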
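Wherever phosphorylation enrichment, bacterial display is given: 11-residue human phosphosite peptides and single-mutation variants displayed on the E. coli surface, counted by deep sequencing, each peptide's frequency after selection divided by its frequency in the unselected input library; frequency after pTyr selection over input frequency; kinase dosed for 20-30% of maximal phosphorylation in three min.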

EPHB2, sequence (P29323 whole entry, looked up): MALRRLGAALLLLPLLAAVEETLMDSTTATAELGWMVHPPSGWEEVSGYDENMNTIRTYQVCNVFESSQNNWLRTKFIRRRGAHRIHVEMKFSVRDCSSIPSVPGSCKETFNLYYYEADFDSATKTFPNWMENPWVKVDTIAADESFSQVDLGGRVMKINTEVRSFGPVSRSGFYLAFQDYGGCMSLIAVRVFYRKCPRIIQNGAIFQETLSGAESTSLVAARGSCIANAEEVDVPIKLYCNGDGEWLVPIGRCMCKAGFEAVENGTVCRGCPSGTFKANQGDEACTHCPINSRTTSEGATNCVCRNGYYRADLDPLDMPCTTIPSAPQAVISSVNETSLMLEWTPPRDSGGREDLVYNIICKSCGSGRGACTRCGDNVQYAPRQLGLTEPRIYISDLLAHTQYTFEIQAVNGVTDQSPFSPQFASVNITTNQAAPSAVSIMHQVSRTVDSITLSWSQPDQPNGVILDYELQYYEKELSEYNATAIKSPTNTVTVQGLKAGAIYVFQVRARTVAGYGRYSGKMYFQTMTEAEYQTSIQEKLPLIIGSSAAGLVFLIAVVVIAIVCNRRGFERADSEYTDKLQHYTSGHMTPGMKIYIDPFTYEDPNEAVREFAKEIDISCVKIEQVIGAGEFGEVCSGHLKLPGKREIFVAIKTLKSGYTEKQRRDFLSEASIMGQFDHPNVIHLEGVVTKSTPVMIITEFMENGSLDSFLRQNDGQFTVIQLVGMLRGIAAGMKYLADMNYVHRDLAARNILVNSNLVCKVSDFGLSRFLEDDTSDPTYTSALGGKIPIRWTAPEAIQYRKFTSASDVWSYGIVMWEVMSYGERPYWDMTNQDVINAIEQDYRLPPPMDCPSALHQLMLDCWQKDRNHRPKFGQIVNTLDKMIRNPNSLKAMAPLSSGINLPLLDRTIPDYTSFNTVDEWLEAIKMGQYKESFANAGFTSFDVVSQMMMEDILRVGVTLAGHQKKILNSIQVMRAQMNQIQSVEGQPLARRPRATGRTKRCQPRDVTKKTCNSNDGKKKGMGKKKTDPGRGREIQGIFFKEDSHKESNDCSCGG
MERTK, sequence (Q12866 whole entry, looked up): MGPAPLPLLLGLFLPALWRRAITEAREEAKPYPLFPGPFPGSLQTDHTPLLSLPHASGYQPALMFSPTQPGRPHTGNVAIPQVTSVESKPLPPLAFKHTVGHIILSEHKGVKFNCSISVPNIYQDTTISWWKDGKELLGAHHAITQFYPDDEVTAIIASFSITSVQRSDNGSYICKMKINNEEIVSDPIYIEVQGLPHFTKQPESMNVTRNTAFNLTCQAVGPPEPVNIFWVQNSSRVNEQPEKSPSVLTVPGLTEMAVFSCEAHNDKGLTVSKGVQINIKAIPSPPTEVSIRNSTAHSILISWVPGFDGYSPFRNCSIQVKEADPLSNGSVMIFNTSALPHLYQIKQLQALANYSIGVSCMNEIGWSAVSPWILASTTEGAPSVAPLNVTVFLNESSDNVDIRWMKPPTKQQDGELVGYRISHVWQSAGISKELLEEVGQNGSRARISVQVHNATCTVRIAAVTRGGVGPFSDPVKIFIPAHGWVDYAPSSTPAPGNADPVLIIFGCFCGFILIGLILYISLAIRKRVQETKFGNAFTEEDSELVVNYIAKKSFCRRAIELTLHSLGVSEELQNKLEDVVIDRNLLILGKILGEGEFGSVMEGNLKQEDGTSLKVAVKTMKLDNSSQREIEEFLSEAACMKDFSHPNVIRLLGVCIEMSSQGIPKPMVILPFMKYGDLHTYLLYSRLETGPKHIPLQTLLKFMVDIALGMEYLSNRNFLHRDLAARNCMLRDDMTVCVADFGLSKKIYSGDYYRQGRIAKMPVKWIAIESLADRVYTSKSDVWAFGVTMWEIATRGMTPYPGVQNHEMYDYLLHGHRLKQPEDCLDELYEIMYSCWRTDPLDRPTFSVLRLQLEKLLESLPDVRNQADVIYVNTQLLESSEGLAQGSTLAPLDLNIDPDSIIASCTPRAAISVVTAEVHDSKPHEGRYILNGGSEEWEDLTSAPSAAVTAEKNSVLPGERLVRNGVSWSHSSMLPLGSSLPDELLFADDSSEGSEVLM
FGFR1, sequence (P11362 whole entry, looked up): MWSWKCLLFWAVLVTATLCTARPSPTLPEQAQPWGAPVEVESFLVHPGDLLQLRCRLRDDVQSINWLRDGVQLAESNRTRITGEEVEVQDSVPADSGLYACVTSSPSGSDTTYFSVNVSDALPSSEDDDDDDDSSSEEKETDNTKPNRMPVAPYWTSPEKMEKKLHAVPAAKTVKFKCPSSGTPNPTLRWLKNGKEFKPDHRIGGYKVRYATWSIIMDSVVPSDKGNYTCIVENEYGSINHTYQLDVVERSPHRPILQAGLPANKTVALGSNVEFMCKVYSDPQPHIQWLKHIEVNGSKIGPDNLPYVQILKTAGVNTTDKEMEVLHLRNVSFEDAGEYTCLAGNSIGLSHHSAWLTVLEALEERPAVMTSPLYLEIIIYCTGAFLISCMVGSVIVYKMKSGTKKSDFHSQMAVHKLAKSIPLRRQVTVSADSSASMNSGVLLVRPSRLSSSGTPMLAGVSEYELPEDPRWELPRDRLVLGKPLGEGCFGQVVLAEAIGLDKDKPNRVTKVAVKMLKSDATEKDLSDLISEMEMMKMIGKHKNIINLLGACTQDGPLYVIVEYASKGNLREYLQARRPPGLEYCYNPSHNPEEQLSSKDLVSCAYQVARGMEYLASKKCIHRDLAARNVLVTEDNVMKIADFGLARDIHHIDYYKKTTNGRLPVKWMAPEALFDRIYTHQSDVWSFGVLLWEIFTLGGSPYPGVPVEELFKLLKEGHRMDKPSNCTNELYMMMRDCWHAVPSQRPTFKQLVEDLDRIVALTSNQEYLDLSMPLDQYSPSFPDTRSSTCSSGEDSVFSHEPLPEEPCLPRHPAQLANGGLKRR
EPHB1, sequence (P54762 whole entry, looked up): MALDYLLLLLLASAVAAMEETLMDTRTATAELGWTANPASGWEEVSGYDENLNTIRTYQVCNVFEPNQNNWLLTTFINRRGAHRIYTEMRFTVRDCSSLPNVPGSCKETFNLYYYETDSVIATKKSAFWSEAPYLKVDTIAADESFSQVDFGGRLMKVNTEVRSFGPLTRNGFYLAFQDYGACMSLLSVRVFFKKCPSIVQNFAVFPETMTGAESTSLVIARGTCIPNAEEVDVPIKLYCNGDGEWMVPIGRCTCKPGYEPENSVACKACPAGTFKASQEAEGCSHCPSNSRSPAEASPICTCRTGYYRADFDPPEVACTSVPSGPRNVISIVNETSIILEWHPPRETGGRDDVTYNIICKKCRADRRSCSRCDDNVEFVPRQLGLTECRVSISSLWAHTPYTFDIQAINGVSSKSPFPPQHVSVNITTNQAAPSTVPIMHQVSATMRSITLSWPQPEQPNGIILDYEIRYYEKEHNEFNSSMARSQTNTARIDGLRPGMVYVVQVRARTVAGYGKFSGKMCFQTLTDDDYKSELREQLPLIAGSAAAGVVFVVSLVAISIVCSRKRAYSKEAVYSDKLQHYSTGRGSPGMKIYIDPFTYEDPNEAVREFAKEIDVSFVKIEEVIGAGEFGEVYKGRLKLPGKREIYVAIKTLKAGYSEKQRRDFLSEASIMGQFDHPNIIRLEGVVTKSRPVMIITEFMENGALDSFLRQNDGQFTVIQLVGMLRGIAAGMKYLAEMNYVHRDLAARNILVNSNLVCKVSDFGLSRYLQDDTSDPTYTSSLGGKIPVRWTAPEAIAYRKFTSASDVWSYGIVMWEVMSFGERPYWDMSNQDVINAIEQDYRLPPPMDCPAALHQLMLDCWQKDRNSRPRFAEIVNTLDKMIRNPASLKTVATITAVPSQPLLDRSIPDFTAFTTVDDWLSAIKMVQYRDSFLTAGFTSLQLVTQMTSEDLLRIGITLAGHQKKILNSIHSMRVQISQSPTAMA
Jak2, sequence (O60674 whole entry, looked up): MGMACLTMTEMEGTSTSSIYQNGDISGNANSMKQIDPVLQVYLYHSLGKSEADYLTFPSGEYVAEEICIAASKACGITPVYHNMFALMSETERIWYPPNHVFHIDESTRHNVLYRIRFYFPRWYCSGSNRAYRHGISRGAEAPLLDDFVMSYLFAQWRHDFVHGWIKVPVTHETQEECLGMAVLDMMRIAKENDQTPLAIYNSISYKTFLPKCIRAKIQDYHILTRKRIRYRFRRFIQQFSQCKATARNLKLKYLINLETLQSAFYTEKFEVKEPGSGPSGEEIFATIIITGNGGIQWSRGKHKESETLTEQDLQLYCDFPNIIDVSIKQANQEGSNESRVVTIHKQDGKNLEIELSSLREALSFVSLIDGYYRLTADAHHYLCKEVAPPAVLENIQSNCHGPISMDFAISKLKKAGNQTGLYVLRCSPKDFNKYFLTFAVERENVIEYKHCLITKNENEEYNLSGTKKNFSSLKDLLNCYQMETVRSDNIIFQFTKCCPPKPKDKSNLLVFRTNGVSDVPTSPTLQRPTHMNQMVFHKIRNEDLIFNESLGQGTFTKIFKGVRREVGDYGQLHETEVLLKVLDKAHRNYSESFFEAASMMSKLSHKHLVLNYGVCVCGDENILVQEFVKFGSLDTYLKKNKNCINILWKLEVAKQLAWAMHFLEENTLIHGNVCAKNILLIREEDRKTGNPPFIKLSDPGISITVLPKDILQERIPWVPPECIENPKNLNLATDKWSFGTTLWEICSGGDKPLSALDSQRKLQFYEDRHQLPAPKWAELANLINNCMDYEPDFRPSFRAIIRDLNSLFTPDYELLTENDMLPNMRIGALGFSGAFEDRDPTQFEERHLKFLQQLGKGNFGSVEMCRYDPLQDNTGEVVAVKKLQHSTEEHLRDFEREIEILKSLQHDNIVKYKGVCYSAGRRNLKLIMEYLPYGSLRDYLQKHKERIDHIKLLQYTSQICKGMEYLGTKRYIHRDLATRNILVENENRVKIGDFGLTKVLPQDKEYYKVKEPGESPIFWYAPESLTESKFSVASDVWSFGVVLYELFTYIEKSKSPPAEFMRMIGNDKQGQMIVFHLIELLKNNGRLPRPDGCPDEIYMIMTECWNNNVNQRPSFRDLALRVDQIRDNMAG

Sequence | SH2 binding enrichment (Grb2 SH2) | SH2 binding enrichment (c-Src SH2) | SH2 binding enrichment (SHP2-C SH2) | phosphorylation enrichment (FGFR1) | phosphorylation enrichment (FGFR3) | phosphorylation enrichment (EPHB1) | phosphorylation enrichment (c-Abl (mouse)) | phosphorylation enrichment (Fer (mouse)) | phosphorylation enrichment (MERTK) | phosphorylation enrichment (AncSZ) | phosphorylation enrichment (Hck) | phosphorylation enrichment (EPHB2) | phosphorylation enrichment (Fyn) | phosphorylation enrichment (c-Src) | phosphorylation enrichment (Jak2) | phosphorylation enrichment (Fes)
VHNLDYFKKTT [FGFR3_Y647_YF] | 0.782 | 0.406 | 0.678 | 0.437 | 0.617 | 0.512 | 0.573 | 0.428 | 0.505 | 0.806 | 0.46 | 0.425 | 0.471 | 0.523 | 0.857 | 0.91
NAGAFYALSTL [FLVCR2_Y325] | 0.979 | 0.592 | 0.837 | 0.61 | 0.649 | 0.822 | 0.608 | 3.19 | 4.76 | 0.784 | 0.752 | 0.784 | 0.567 | 1.23 | 0.751 | 0.764
TCRPPYFHRNC [HGD_Y333_F329C_YF] | 1.45 | 1 | 0.9 | 0.255 | 0.568 | 0.215 | 0.878 | 0.334 | 0.758 | 1.05 | 0.548 | 0.686 | 0.4 | 0.314 | 0.914 | 1.06
QYQEKYKQVEQ [HCN4_Y531] | 0.958 | 0.743 | 0.971 | 1.17 | 1.3 | 0.908 | 0.493 | 0.576 | 0.375 | 1.44 | 0.579 | 0.721 | 0.821 | 0.491 | 0.858 | 1.12
AIIEEYLHLND [EIF4G1_Y1253] | 0.763 | 0.446 | 0.855 | 0.564 | 0.736 | 0.564 | 0.585 | 0.487 | 0.376 | 1.02 | 0.492 | 0.498 | 0.493 | 0.411 | 0.959 | 1.19
FPPDGYSRHCE [CTNND1_Y213_Y217C_YF] | 0.985 | 0.617 | 0.706 | 0.477 | 0.661 | 0.565 | 0.584 | 0.485 | 0.383 | 0.784 | 0.473 | 0.542 | 0.431 | 0.376 | 0.741 | 0.904
VPLLEYYWDIF [CDAN1_Y712_R714W] | 1.54 | 1.12 | 1.08 | 7.97 | 6.87 | 2.27 | 0.923 | 0.521 | 1.54 | 1.43 | 0.813 | 1.54 | 0.879 | 1.67 | 2.12 | 1.46
VTGWGYRKLRE [F11_Y521_D526E] | 0.63 | 0.584 | 0.375 | 0.476 | 0.631 | 0.415 | 0.588 | 0.508 | 0.546 | 0.907 | 0.407 | 0.455 | 0.495 | 0.578 | 0.579 | 0.763

More lines, main results first:

SH2 binding enrichment (Grb2 SH2) | SH2 binding enrichment (c-Src SH2) | SH2 binding enrichment (SHP2-C SH2) | Sequence | phosphorylation enrichment (FGFR1) | phosphorylation enrichment (FGFR3) | phosphorylation enrichment (EPHB1) | phosphorylation enrichment (c-Abl (mouse)) | phosphorylation enrichment (Fer (mouse)) | phosphorylation enrichment (MERTK) | phosphorylation enrichment (AncSZ) | phosphorylation enrichment (Hck) | phosphorylation enrichment (EPHB2) | phosphorylation enrichment (Fyn) | phosphorylation enrichment (c-Src) | phosphorylation enrichment (Jak2) | phosphorylation enrichment (Fes)
0.643 | 0.537 | 0.763 | HVIKLYGACSQ [RET_Y791] | 0.627 | 0.84 | 0.875 | 1.1 | 0.545 | 0.423 | 1.13 | 0.661 | 0.768 | 0.489 | 0.713 | 1.6 | 1.58
0.825 | 0.448 | 0.561 | DLQDEYDFKCK [STAT1_Y170] | 0.668 | 0.772 | 0.598 | 0.877 | 0.555 | 0.538 | 1.28 | 0.766 | 0.702 | 0.543 | 0.546 | 1.19 | 1.31
1.18 | 0.866 | 0.721 | SCRSKYVGLWG [KCNQ1_Y184_G179S] | 0.364 | 0.456 | 0.39 | 0.541 | 0.465 | 0.451 | 0.665 | 0.423 | 0.497 | 0.419 | 0.509 | 0.574 | 0.984
0.927 | 0.589 | 0.671 | EDGCIYPATIA [SMN1_Y109] | 0.546 | 0.727 | 0.744 | 0.87 | 0.513 | 0.545 | 1.07 | 0.577 | 0.562 | 0.587 | 0.539 | 1.1 | 1.37
2.78 | 0.832 | 1.14 | ELTAKYLNFFR [P3H4_Y181_Q186R_YF] | 0.394 | 0.513 | 0.414 | 0.574 | 0.335 | 0.435 | 0.684 | 0.456 | 0.425 | 0.444 | 0.366 | 0.632 | 0.778
0.697 | 0.42 | 0.675 | LRGEDYGFSVD [PRKCI_Y430] | 0.587 | 0.835 | 0.686 | 1.12 | 0.636 | 0.623 | 1.1 | 0.58 | 0.668 | 0.518 | 0.512 | 1 | 1.35
1.4 | 1.23 | 1.18 | LKRIAYFLCLL [LGI1_Y21] | 0.696 | 0.741 | 0.64 | 0.821 | 0.714 | 0.424 | 1.05 | 0.394 | 0.536 | 0.506 | 0.484 | 1.09 | 1.53
0.812 | 0.436 | 0.544 | EDASEYFENFI [PARP4_Y214_F215Y_YF] | 1.48 | 1.58 | 0.798 | 1.07 | 0.598 | 0.58 | 2.37 | 0.624 | 0.806 | 0.613 | 0.618 | 1.39 | 1.47
